Test results as given in the supplement of paper PMC10567573.
± gives the standard deviation.

Test: protein stability index of a GFP-peptide fusion (GPS, HEK-293T) (PSI 1-6); higher = more stable
[1] = treatment: DMSO, c terminus: a fixed tail appended
[2] = treatment: MLN4924 1 uM, 8 h, c terminus: a fixed tail appended
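Further: 24-mer peptide tiles fused after GFP, lentivirally expressed, FACS-sorted into six equal bins by GFP/DsRed ratio, decoded by Illumina sequencing, PSI is the read-weighted mean bin number.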

Row | Sequence | protein stability index [1] | protein stability index [2] | protein stability index (treatment: DMSO, c terminus: native) | protein stability index (treatment: MLN4924 1 uM, 8 h, c terminus: native)
1 | EGAVKMGMPSSLAHRIAAQTLLGT [PYCR3] | 3.08 ± 0.53 | 3.39 ± 0.17 | – | –
2 | HGVELHSDVIEYAKQKLDFFIRTS [PCMTD2] | 2.37 ± 0.2 | 2.48 ± 0.29 | – | –
3 | TPVILVGCQLDLRYADLEAVNRAR [RHOBTB1] | 2.46 ± 0.09 | 2.34 ± 0.39 | – | –
4 | QAHGSEGLTFQGLLPLTELSVCPL [PLEKHN1] | 3.08 ± 0.29 | 3.05 ± 0.19 | – | –
5 | DYIIRNTDRGNDNWLIKYDCPMDS [PI4K2A] | 2.81 ± 0.25 | 2.88 ± 0.12 | – | –
6 | RLLSYRGERVAARGYWGDIATGPF [DNAAF3] | 2.18 ± 0.046 | 2.18 ± 0.34 | – | –
7 | SRQDKPLSPAGSSQEAADTPDTRH [YJU2B] | 5.56 ± 0.14 | 5.46 ± 0.13 | – | –
8 | EKDQEQVVMNLDSRLLIFPLYICC [GMCL1] | 2.74 ± 0.75 | 2.74 ± 0.67 | – | –
9 | GCQVSPEGYAHLTHLLMGLASGRI [HDAC6] | 2.46 ± 0.89 | 2.57 ± 0.53 | – | –
10 | PATHLSPALAPVPRNSCITCPQCH [TRIM9] | 3.82 ± 0.39 | 3.87 ± 0.23 | – | –
11 | QFIANLDQLNDGQDFAKDLLKTLY [PSD2] | 2.21 ± 0.43 | 2.42 ± 0.28 | – | –
12 | IQECVPEDLELKKKIFAQLDSIID [CRYL1] | 3.07 ± 0.2 | 3.33 ± 0.34 | – | –
13 | ARKQDMNTKRAIHTLAVMNDRLYA [KLHL14] | 2.55 ± 0.24 | 2.93 ± 0.36 | – | –
14 | YVKFDAVSGDYYPIIYFNDYWNLQ [CLPTM1] | 2.78 ± 0.5 | 2.8 ± 0.64 | – | –
15 | SQDLLPPPNPYPLPQEHSQIYHCT [TBX5] | 4.02 ± 0.22 | 4.11 ± 0.22 | – | –
16 | REISETEAKALLKERQKKDNHNLI [TFE3] | 5 ± 0.23 | 5.1 ± 0.16 | – | –
17 | NLKQLRKRGSIPTSLTALSLASAS [PPFIA4] | 3 ± 0.15 | 3.09 ± 0.24 | – | –
18 | QMPPVIVETARSHQRSSSESYTQS [PI4K2A] | 4.6 ± 0.28 | 4.72 ± 0.16 | – | –
19 | DIVEFVCKSGYHPTKSHSFRAMCQ [CFHR2] | 2.49 ± 0.7 | 2.09 ± 0.18 | – | –
20 | IVAVIDSAQLQELVCHVMMGNLVM [INTS3] | 3.25 ± 0.72 | 3.05 ± 0.55 | – | –
21 | RVRPTFQEITSETEDLCEKPDDEV [RIPK4] | 5.57 ± 0.17 | 5.49 ± 0.56 | – | –
22 | AGINTHSNEFKESALTLACYKGHL [ANKRD17] | 2.76 ± 0.19 | 2.86 ± 0.47 | – | –
23 | EAWRLVEEGIVSPSDLDLVMSEGL [CRYL1] | 3.91 ± 0.058 | 3.9 ± 0.16 | – | –

Row | Sequence | protein stability index [1] | protein stability index [2] | protein stability index (treatment: DMSO, c terminus: native) | protein stability index (treatment: MLN4924 1 uM, 8 h, c terminus: native)
24 | AIHSSDEDEDEDDEEDFEDDDEWE [WASL] | 4.48 ± 0.26 | 4.49 ± 0.27 | – | –
25 | KINAWDLYYYMTQTEELKYSIDQE [NLN] | 2.34 ± 0.3 | 2.19 ± 0.35 | – | –
26 | LSVEADINGLRRVLDELTLARADL [KRT17] | 2.66 ± 0.26 | 3.04 ± 0.43 | – | –
27 | VIDILPNCVSSVYLYYDPDYSFLS [ATE1] | 3.35 ± 0.49 | 3.1 ± 0.77 | – | –
28 | SLRFNGRVLFIKDVIGDEICCWSF [KCTD10] | 2.65 ± 0.49 | 2.42 ± 0.45 | – | –
29 | VTSVSIELEKNFSNFPRQYFALRK [TRIM39] | 2.47 ± 0.25 | 2.5 ± 0.15 | – | –
30 | GFCFFNSVAVAARHAQTISGHALR [HDAC6] | 2.25 ± 0.43 | 1.76 ± 0.28 | – | –
31 | KNLFRLEMDMVVFRPEMKKHSWCL [N4BP2L1] | 2.48 ± 0.48 | 2.4 ± 0.45 | – | –
32 | APRFSFNDPSGSEEADFLSAETGS [IRX6] | 5.36 ± 0.14 | 5.33 ± 0.24 | – | –
33 | RAQEREQIKALNNKFASFIDKVRF [KRT71] | 2.1 ± 0.11 | 2.2 ± 0.3 | – | –
34 | MIAFFFIIIYLGPMVLMIIVMCVQ [CDS2] | 3.3 ± 0.31 | 3.12 ± 0.93 | – | –
35 | DAPLHSVGYTTLVGNNHESWGWDL [SPSB1] | 2.9 ± 0.16 | 2.85 ± 0.25 | – | –
36 | GGACPAFLPSLRPPPLTSPSHGSL [NCF4] | 3.59 ± 0.092 | 3.71 ± 0.28 | – | –
37 | ENILADNSVNDQTKILVVNAAYFV [SERPINB5] | 2.25 ± 0.21 | 2.34 ± 0.17 | – | –
38 | IAGGLAGMGGIQNEKETMQSLNDR [KRT18] | 4.83 ± 0.24 | 4.81 ± 0.33 | – | –
39 | TTHFQSIPDAFWWAVVTMTTVGYG [KCNA4] | 3.05 ± 0.88 | 2.96 ± 0.33 | – | –
40 | TELLAERFYYQALSVAPQIGMPFN [SMG5] | 2.21 ± 0.34 | 2.16 ± 0.17 | – | –
41 | DNWDEKKLEEVVNKKHGEAEKKKP [ZC3H15] | 5.48 ± 0.48 | 5.75 ± 0.25 | – | –
42 | DYPVQVAPLSNGLCCAFSTDGSVL [WSB1] | 2.66 ± 0.27 | 2.96 ± 0.32 | – | –
43 | KVEQNSRPVSCSGRDALLDQIRQG [WASL] | 4 ± 0.16 | 3.96 ± 0.081 | – | –
44 | VAREYYSEADASHCIQQILEAVLH [CAMK2B] | 2.29 ± 0.3 | 2.87 ± 0.49 | – | –
45 | KWDGKSTTIKRKREDDKLVVECVM [FABP4] | 2.82 ± 0.3 | 2.83 ± 0.23 | – | –
46 | SPVTTSPTAATTQNPVLSKLLMAD [LCOR] | 4.536 ± 0.031 | 4.44 ± 0.081 | – | –

Row | Sequence | protein stability index [1] | protein stability index [2] | protein stability index (treatment: DMSO, c terminus: native) | protein stability index (treatment: MLN4924 1 uM, 8 h, c terminus: native)
47 | LKEGVRLDRVRGGRQKYKRRPEVD [ESRRA] | 4.19 ± 0.29 | 4.43 ± 0.19 | – | –
48 | YPTSDQEGDPGSKQPRKKRGRYRQ [LCOR] | 5.3 ± 0.23 | 5.45 ± 0.27 | – | –
49 | HKYNTTSTSYSPLASLPLKADTKG [PLAGL1] | 4.23 ± 0.16 | 4.41 ± 0.2 | – | –
50 | RLVGKTPIETLIRDMLLSGSSFNW [NR2F2] | 3.25 ± 0.84 | 1.87 ± 0.54 | – | –
51 | PLLPSDLRRTGCAALRIANCKLFR [GAN] | 2.29 ± 0.34 | 2.35 ± 0.24 | – | –
52 | KRAPGEETEKEEEEEDREEEDENG [NEUROD6] | 5.6 ± 0.34 | 5.69 ± 0.43 | – | –
53 | HALRKKQLKRQKRDYIHSLKLLNV [FAM9B] | 2.6 ± 0.42 | 2.84 ± 0.27 | – | –
54 | AEGIGSTVFRAILDYYKTGIIRCP [BTBD10] | 2.12 ± 0.42 | 1.99 ± 0.2 | – | –
55 | SGVDECARQEGLTFFGTELAPVRQ [PBXIP1] | 4.13 ± 0.4 | 4.08 ± 0.35 | – | –
56 | AAAFSQCEEWSFFHAYYYCFITLT [KCNK9] | 3.33 ± 0.51 | 3.23 ± 0.49 | – | –
57 | GLGRPTPGLSQGPGKETLESALIA [EHMT1] | 3.95 ± 0.13 | 4.29 ± 0.22 | – | –
58 | KRRRKSCQACRFMKCLKVGMLKEG [ESRRG] | 2.67 ± 0.2 | 2.78 ± 0.25 | – | –
59 | VASAPLQPPVPSLSEVKPPPPPPP [TRADD] | 5.02 ± 0.15 | 4.71 ± 0.34 | – | –
60 | FAYLEDLHSEFDEQHGKKVPTVSR [SEC22B] | 3.64 ± 0.24 | 3.73 ± 0.33 | – | –
61 | RSHFLWKEPATMSWLEENVHEVLQ [TCF25] | 2.43 ± 0.78 | 2.69 ± 0.39 | – | –
62 | ALREVYAHAVLGQHSHVVRYFSAW [WEE1] | 2.36 ± 0.34 | 2.03 ± 0.3 | – | –
63 | KEDGEPSWREAKVSWFGSPTTSFL [PWWP2B] | 2.95 ± 0.082 | 3.17 ± 0.55 | – | –
64 | TCRNPACGPQWEMSEWSECTAKCG [ADAMTSL2] | 3.28 ± 0.29 | 3.93 ± 0.53 | – | –
65 | QRLVEALEENELTSLAEDLLGLTD [TRADD] | 4.28 ± 0.14 | 4.28 ± 0.17 | – | –
66 | KAGIEQEGYWLPGDEISIKKKNTN [ZMYND11] | 4.5 ± 0.3 | 4.62 ± 0.35 | – | –
67 | QGPQGREGLAFLVSCPEGRADCAS [PWWP2B] | 3.77 ± 0.33 | 3.95 ± 0.26 | – | –
68 | MPCTWVMACAYAPSGCAIACGGLD [GNB5] | 2.77 ± 0.53 | 2.88 ± 0.4 | – | –
69 | FAQRTFDYELLQMLQIVVGVRDSG [PCDHGC5] | 3.01 ± 0.53 | 2.74 ± 0.84 | – | –

Row | Sequence | protein stability index [1] | protein stability index [2] | protein stability index (treatment: DMSO, c terminus: native) | protein stability index (treatment: MLN4924 1 uM, 8 h, c terminus: native)
70 | KWNTQTKARSYSYPHCTGISQQDP [ZC2HC1C] | 3.33 ± 0.34 | 3.63 ± 0.38 | – | –
71 | AQALGYYYVLEPRVVDGTPCSPDS [ADAMTS4] | 2.74 ± 0.52 | 2.7 ± 0.38 | – | –
72 | FWKKYRTFWKEDKAFWKEDNALWE [CCDC70] | 2.54 ± 0.49 | 2.26 ± 0.36 | – | –
73 | SIQKLSNESRYMIYEFWENSSVWN [NECAB1] | 2.15 ± 0.45 | 2.01 ± 0.3 | – | –
74 | SFMTWLRSYIKLFQAPCQRCGKFL [MED27] | 2.6 ± 0.31 | 2.48 ± 0.18 | – | –
75 | RSPLVSGDESSLLLNAASTVARPV [RHOBTB3] | 4.31 ± 0.17 | 4.25 ± 0.26 | – | –
76 | SDYISEFRFAPNHTKELEDKVIEL [EPB41L3] | 2.83 ± 0.5 | 3.44 ± 0.49 | – | –
77 | PNVIDNFLCDLYPLLKLACTNTYV [OR4A15] | 2.87 ± 0.2 | 3.12 ± 0.29 | – | –
78 | ESIDFDQGELADQDVDPVHNLIEQ [FBXO33] | 5.51 ± 0.16 | 5.22 ± 0.26 | – | –
79 | PANTQINDIRIFLEKVLEENAQKK [VPS39] | 3.73 ± 0.22 | 3.61 ± 0.36 | – | –
80 | SFMMGQGGEAAHHTRSPYSTFYPP [NEUROD6] | 2.66 ± 0.39 | 2.84 ± 0.25 | – | –
81 | ARIQTLEPDNWMKEVMLFGHGTRK [RSAD1] | 3 ± 0.5 | 3.33 ± 0.35 | – | –
82 | DGMLYILGGEDGEKELISMECYDI [GAN] | 2.05 ± 0.18 | 2.26 ± 0.42 | – | –
83 | WVGTGLAAALAGLVGLATAAFGHV [CPOX] | 2.13 ± 0.37 | 2.16 ± 0.3 | – | –
84 | TVLVSVTVFDANDNAPVFTLPEYR [PCDHGA10] | 2.76 ± 0.43 | 2.58 ± 0.36 | – | –
85 | TEMELLEVSQHIKMRMGGRVDFEE [CABP4] | 4.11 ± 0.25 | 4.08 ± 0.099 | – | –
86 | GPMRPEQFSDEVEPATPEEGEPAT [GAGE1] | 5.39 ± 0.2 | 5.266 ± 0.044 | – | –
87 | TVCDDKWDLVSASVVCRELGFGSA [LOXL2] | 2.54 ± 0.49 | 2.7 ± 0.2 | – | –
88 | EDDKLVVECVMKGVTSTRVYERA [FABP4] | – | – | 3.03 ± 0.29 | 3.75 ± 0.42
89 | VSGGSRSLNMSRRDSESTRHDSET [PHTF1] | 5.25 ± 0.26 | 5.5 ± 0.14 | – | –
